Biological target: APC-B (APC Basic domain, residues 2167-2674), without SNAP (human, UniProt P25054 2167-2674)
Test: other fluorescence titration

B1: EB1 (full-length, untagged, unlabeled) (natural protein, human, UniProt Q15691 1-268, looked up)
chain: MAVNVYSTSVTSDNLSRHDMLAWINESLQLNLTKIEQLCSGAAYCQFMDMLFPGSIALKKVKFQAKLEHEYIQNFKILQAGFKRMGVDKIIPVDKLVKGKFQDNFEFVQWFKKFFDANYDGKDYDPVAARQGQETAVAPSLVAPALNKPKKPLTSSSAAPQRPISTQRTAAAPKAGPGVVRKNPGVGNGDDEAAELMQQVNVLKLTVEDLEKERDFYFGKLRNIELICQENEGENDPVLQRIVDILYATDEGFVIPDEGGPQEEQEEY
With B1 as the binder, how does the IC50 read?
Its IC50 is about 300 nM.

— publication PMC7726095 (Current biology : CB, 2020)
